Reference: paper PMC12090219, “Reversible Substrate-Specific Photocontrol of the Chemotherapeutic Asparaginase(-Glutaminase) from Escherichia coli” (ACS Catalysis, 2025)
Changes are numbered by the printed parent chain. Each block holds one binder with its values, some of them ahead of it.

Assays:
[1] = target: T1, wild-type Escherichia coli type II asparaginase (E. coli), P00805; test: SEC-MALS; analytical size-exclusion chromatography with static light scattering detection; 40 uM EcAII on S200 10/300 GL in 50 mM Tris/HCl pH 7.0, 100 mM NaCl; detection at 280 and 334 nm; conditions: remark: other sources report otherwise
T1 chain: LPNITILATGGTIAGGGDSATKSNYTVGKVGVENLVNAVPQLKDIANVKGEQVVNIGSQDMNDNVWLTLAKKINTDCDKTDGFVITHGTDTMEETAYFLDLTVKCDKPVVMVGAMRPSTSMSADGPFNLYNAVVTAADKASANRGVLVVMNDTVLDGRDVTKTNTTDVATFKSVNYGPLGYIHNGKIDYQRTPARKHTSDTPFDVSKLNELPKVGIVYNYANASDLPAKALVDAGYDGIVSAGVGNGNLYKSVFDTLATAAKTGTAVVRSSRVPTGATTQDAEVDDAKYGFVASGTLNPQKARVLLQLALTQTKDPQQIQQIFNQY

[2] = target: the molecule itself; test: as above

- stoichiometry N [1]: 4
B1: wild-type Escherichia coli type II asparaginase, P00805 23-348 (enzyme)
chain: T1 chain

B2: EcAII-S19AzoF (enzyme, E. coli)
chain: T1 chain with S19F
modifications: phenylalanine-4'-azobenzene (AzoF) at position 19
notes: type II L-asparaginase (EcAII) from E. coli, gene ansB, UniProt P00805, with the unnatural amino acid AzoF in place of S19; The new residue is the unnatural amino acid phenylalanine-4'-azobenzene; the as-isolated state is ~100% E; also called EcAII with phenylalanine-4'-azobenzene at position S19
- stoichiometry N [2]: 4

B3: EcAII-T21AzoF (enzyme, E. coli)
chain: T1 chain with T21F
modifications: phenylalanine-4'-azobenzene (AzoF) at position 21
notes: type II L-asparaginase (EcAII) from E. coli, gene ansB, UniProt P00805, with the unnatural amino acid AzoF in place of T21; The new residue is the unnatural amino acid phenylalanine-4'-azobenzene; the as-isolated state is ~100% E; also called EcAII with phenylalanine-4'-azobenzene at position T21
- stoichiometry N [2]: 4
